The results in this text go back to patent US20200247894A1 (Regeneron, published 2020).

Assay [1] deals with T1, Macaca fascicularis IL2Rγ extracellular domain expressed with a C-terminal myc-myc-hexahistidine tag (Macaca fascicularis).
T1 construct: also called mfIL-2Rg-MMH; mfIL-2RG-MMH
T1 chain: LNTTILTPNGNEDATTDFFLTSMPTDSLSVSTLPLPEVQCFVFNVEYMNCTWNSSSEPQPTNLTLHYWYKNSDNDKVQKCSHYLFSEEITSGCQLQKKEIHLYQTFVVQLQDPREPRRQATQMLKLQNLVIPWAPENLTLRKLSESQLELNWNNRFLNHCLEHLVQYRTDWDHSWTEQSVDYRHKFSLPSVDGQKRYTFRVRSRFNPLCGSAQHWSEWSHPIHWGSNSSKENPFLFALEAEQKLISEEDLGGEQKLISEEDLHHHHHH
Kind of assay: SPR Biacore 4000, mAb captured by anti-hFc, 37C, dissociation in PBS-T pH 6.0. How it is done: (§1) The dissociation rate constant (kd) for binding of IL-2Rγ reagents to purified anti-IL2Rγ monoclonal antibodies was determined using a real-time surface plasmon resonance based Biacore 4000 biosensor platform. […] The CM5 Biacore sensor surface derivatized by amine coupling with monoclonal mouse anti-human Fc antibody (GE, Catalog # BR-1008-39) was used to capture anti-IL2Rγ monoclonal antibodies expressed with human IgG4 Fc. All the IL2Rγ reagents were expressed with a C-terminal myc-myc-hexahistidine tag (subsequently referred to with a -MMH suffix). […] The dissociation of bound IL-2Rg-MMH was performed in PBS-T-pH7.4 or PBS-T-pH6.0 running buffers for 6 minutes.
(§2) Dissociation rate constants (kd) in two running buffers were determined by fitting the real-time binding sensorgrams to a 1:1 binding model using Scrubber 2.0c curve-fitting software. Values of dissociation rate for […] mAb binding to hIL-2RG-MMH and mfIL-2RG-MMH at 25° C. and 37° C. in PBS-T-pH7.4 and PBS-T-pH6.0 is shown in Table 2-1 through Table 2-8.
Background: In SPR one partner is held on a chip, and binding of the other changes the refractive index at the surface.

The target of assay [2] is T2, Human IL2Rγ extracellular domain expressed with a C-terminal myc-myc-hexahistidine tag (human).
T2 construct: also called hIL-2Rg-MMH; hIL-2RG-MMH
T2 chain: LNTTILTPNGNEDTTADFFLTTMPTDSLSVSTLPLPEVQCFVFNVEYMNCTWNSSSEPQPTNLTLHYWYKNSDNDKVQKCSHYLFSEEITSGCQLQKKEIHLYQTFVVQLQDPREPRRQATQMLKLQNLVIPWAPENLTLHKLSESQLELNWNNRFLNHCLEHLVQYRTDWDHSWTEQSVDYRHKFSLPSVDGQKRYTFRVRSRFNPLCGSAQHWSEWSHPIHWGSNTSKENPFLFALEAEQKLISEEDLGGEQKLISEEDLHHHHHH
Kind of assay: SPR Biacore 4000, mAb captured by anti-hFc, HBS-ET, 25C. How it is done:
(§3) Equilibrium dissociation constants (KD values) for IL-2Rγ binding to purified anti-IL2Rγ monoclonal antibodies were determined using a Biacore 4000 instrument equipped with a real-time surface plasmon resonance biosensor. All binding studies were performed in 10 mM HEPES, 150 mM NaCl, 3 mM EDTA, and 0.05% v/v Surfactant Tween-20, pH 7.4 (HBS-ET) running buffer at 25° C. and 37° C. The Biacore sensor surface was first derivatized by amine coupling with a monoclonal mouse anti-human Fc antibody (GE, # BR-1008-39) to capture anti-IL2Rγ monoclonal antibodies.
(§4) The dissociation of monoclonal antibody bound IL2Rγ reagents were monitored for 8-10 minutes in HBS-ET running buffer. Kinetic association (kₐ) and dissociation (kd) rate constants were determined by fitting the real-time sensorgrams to a 1:1 binding model using Scrubber 2.0c curve fitting software. Binding dissociation equilibrium constants (KD) and dissociative half-lives (t_{1/2}) were calculated from the kinetic rate constants as: […]

For assay [3], the target named is T1, Macaca fascicularis IL2Rγ extracellular …. Described as above. The protocol:
as §3, §4

Assay [4] shares this target. The experiment in a line: SPR Biacore 4000, mAb captured by anti-hFc, 37C, dissociation in PBS-T pH 7.4. The protocol:
as §1, §2

Assay [5] addresses T2, Human IL2Rγ extracellular domain …. The experiment in a line: SPR Biacore 4000, mAb captured by anti-hFc, HBS-ET, 37C. The protocol:
as §3, §4

B1: H4H12922P2 (antibody, human IgG4 S228P, kappa, V domains shown)
VH: QVQLVESGGGVVKPGGSLRLSCAASGFTFSNSGIHWVRQAPGKGLEWVALISYAGSNKYYADSVKGRFTISRDNSKNTLSLQMNSLRAEDTAVYYCAKEVWTGTYDSFDMWGRGTMVTVSS
VL: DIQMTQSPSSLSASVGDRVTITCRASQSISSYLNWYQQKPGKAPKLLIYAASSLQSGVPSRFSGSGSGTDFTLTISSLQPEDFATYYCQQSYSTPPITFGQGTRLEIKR
notes: anti-IL2Rγ monoclonal antibody expressed with human IgG4 Fc; also called REGN7256
On to B1, for which, in assay [1], the “100 nM Ag Bound (RU)” value stood at 146 RU, the off-rate constant (koff) (usually the rate constant with which the complex falls apart) worked out at 0.00344 s⁻¹ and the t1/2 turned out to be 3.4 min. In assay [2], the “100 nM Ag Bound” value was determined as 79 RU; the affinity, expressed as Kd, was 1.3 nM; the dissociation rate constant (koff) is 0.000386 s⁻¹; the kon (in general, a measure of how fast the partners come together) was 297000 M⁻¹ s⁻¹. The same molecule yielded a t1/2 in assay [2] of 30 min. For the same molecule, in assay [3], the “100 nM Ag Bound” value came out at 76 RU; the Kd – broadly, the free concentration of one partner at which half of the binding sites on the other are occupied at equilibrium, for simple one-to-one binding – came out at 1.64 nM; the koff was determined as 0.000386 s⁻¹; the kon is 235000 M⁻¹ s⁻¹. The molecule also displayed a t1/2 in assay [3] of 30 min. In addition, in assay [4], the “100 nM Ag Bound (RU)” value was found to be 185 RU, the koff came out at 0.000693 s⁻¹ and the t1/2 was determined as 17 min. Moreover, in assay [5], the “100 nM Ag Bound” value came to 44 RU, the Kd is 2.58 nM, the koff stood at 0.00105 s⁻¹ and the kon was 407000 M⁻¹ s⁻¹. The same molecule returned a t1/2 in assay [5] of 11 min.

B2: H4H12913P2 (antibody, human IgG4 S228P, kappa, V domains shown)
VH: EVQLVESGGGVVRPGGSLRLSCAASGFTFDDYGMSWVRQAPGKGLEWISSINRNGGSADYADSVKGRFTISRDNAKNSLFLQMSSLRAEDTALYHCASGEFRFDYWGQGTLVTVSS
VL: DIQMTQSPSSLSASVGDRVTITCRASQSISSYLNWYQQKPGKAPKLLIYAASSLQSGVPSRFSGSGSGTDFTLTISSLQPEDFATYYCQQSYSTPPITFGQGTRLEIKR
notes: anti-IL2Rγ monoclonal antibody expressed with human IgG4 Fc
On to B2, for which, in assay [1], the “100 nM Ag Bound (RU)” value was 54 RU, the koff was determined as 0.00296 s⁻¹ and the t1/2 came to 4 min. In assay [2], the “100 nM Ag Bound” value was found to be 42 RU, the Kd amounted to 11.2 nM, the dissociation rate constant (koff) turned out to be 0.000691 s⁻¹ and the kon worked out at 62000 M⁻¹ s⁻¹. Moreover, in assay [2], the t1/2 was determined as 17 min. Also, in assay [3], the “100 nM Ag Bound” value was 34 RU, the dissociation constant Kd was 14.1 nM, the koff was 0.000633 s⁻¹ and the association rate constant (kon) stood at 44900 M⁻¹ s⁻¹. The molecule also yielded a t1/2 in assay [3] of 18 min. Besides, in assay [4], the “100 nM Ag Bound (RU)” value turned out to be 76 RU, the koff came out at 0.000894 s⁻¹ and the t1/2 was determined as 13 min. For the same molecule, in assay [5], the “100 nM Ag Bound” value was found to be 24 RU, the Kd is 33.4 nM, the koff was 0.00348 s⁻¹ and the kon turned out to be 104000 M⁻¹ s⁻¹. In addition, the t1/2 in assay [5] came out at 3.3 min.

B3: H4H12924P2 (antibody, human IgG4 S228P, kappa, V domains shown)
VH: EVQLVESGGGLVQPGRSLRLSCAASGFTLEDYAMHWVRQAPGKGLEWVSGISWNRGSTGYADSVKGRFTISRDNAKNSLYLQMTSLRAEDTALYYCAKGFYSMDVWGQGTTVTVSS
VL: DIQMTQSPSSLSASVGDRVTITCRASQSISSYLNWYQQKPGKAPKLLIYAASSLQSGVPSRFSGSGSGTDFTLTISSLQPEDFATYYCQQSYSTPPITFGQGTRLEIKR
notes: as for B2
Regarding B3, in assay [1], the “100 nM Ag Bound (RU)” value was found to be 126 RU, the koff was determined as 0.0124 s⁻¹ and the t1/2 turned out to be 0.9 min. Further, in assay [2], the “100 nM Ag Bound” value is 78 RU, binding was characterised by a dissociation constant (Kd) of 5.38 nM, the koff is 0.00174 s⁻¹ and the on-rate (kon) is 322000 M⁻¹ s⁻¹. For the same molecule, the t1/2 in assay [2] stood at 7 min. Also, in assay [3], the “100 nM Ag Bound” value was determined as 73 RU, binding was characterised by a dissociation constant (Kd) of 6.58 nM, the koff turned out to be 0.00165 s⁻¹ and the kon amounted to 251000 M⁻¹ s⁻¹. The same molecule returned a t1/2 in assay [3] of 7 min. In addition, in assay [4], the “100 nM Ag Bound (RU)” value is 133 RU, the off-rate constant (koff) stood at 0.00267 s⁻¹ and the t1/2 was determined as 4 min. For the same molecule, in assay [5], the “100 nM Ag Bound” value was determined as 26 RU, the Kd was 18 nM, the koff was determined as 0.0157 s⁻¹ and the kon was found to be 871000 M⁻¹ s⁻¹. Moreover, the t1/2 in assay [5] stood at 0.7 min.

B4: H4H12859P (antibody, human IgG4 S228P, kappa, V domains shown)
VH: QVQLVQSGAEVKKPGASVRVSCKASGYTFTDYDIHWVRQAPGHGLEWMGWINPNSGGTNYAQKFQGRVTMTRDTSISTVYMDLSRLRSDDTAVYYCARADYSSSYYYYGMDVWGQGTTVTVSS
VL: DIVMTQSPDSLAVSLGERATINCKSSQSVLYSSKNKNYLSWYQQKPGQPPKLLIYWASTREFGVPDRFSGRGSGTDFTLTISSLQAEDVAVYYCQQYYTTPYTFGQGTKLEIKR
notes: as for B2
For the molecule B4, in assay [1], the “100 nM Ag Bound (RU)” value is 31 RU, the koff is 0.0123 s⁻¹ and the t1/2 was determined as 0.9 min. Also, in assay [2], the “100 nM Ag Bound” value came out at 27 RU, binding was put at a Kd of 87.6 nM, the koff is 0.00321 s⁻¹ and the kon was determined as 36600 M⁻¹ s⁻¹. This molecule also gave a t1/2 in assay [2] of 4 min. In addition, in assay [3], the “100 nM Ag Bound” value came out at 17 RU; the affinity, expressed as Kd, was 126 nM; the koff amounted to 0.00507 s⁻¹; the kon was determined as 40300 M⁻¹ s⁻¹. Also, the t1/2 in assay [3] is 2.3 min. Also, in assay [4], the “100 nM Ag Bound (RU)” value worked out at 47 RU, the koff came out at 0.00397 s⁻¹ and the t1/2 was determined as 2.9 min. Moreover, in assay [5], the “100 nM Ag Bound” value worked out at 18 RU; the affinity, expressed as Kd, was 187 nM; the koff was 0.0129 s⁻¹; the on-rate (kon) came out at 69000 M⁻¹ s⁻¹. The molecule further registered a t1/2 in assay [5] of 0.9 min.

B5: H4H13545P2 (antibody, human IgG4 S228P, kappa, V domains shown)
VH: QVQLQQSGPGLVKPSQTLSLTCDISGDSVSSNIATWNWIRQSPSRGLEWLGRTYYRSKWYKDYAVSVKSRITINPDTSKNQFSLQVNSVTPEDTAVYYCARMTGPRYYFEYWGQGTLVTVSS
VL: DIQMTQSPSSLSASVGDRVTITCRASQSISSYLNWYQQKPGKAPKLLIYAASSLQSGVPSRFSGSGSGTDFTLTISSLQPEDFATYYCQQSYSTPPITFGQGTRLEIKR
notes: as for B2
For the molecule B5, in assay [1], the “100 nM Ag Bound (RU)” value was found to be 13 RU. Besides, in assay [2], the “100 nM Ag Bound” value was 12 RU, the dissociation constant (Kd) turned out to be 336 nM, the koff was determined as 0.0575 s⁻¹ and the kon worked out at 171000 M⁻¹ s⁻¹. Besides, in assay [2], the t1/2 is 0.2 min. In assay [3], the “100 nM Ag Bound” value turned out to be 26 RU, the Kd was found to be 143 nM, the off-rate constant (koff) came to 0.014 s⁻¹ and the association rate constant (kon) is 97800 M⁻¹ s⁻¹. In assay [3], this molecule came in with a t1/2 of 0.8 min. Besides, the “100 nM Ag Bound (RU)” value in assay [4] worked out at 17 RU. Moreover, in assay [5], the “100 nM Ag Bound” value turned out to be 7 RU; the affinity, expressed as Kd, was 113 nM; the koff is 0.0691 s⁻¹; the kon came out at 611000 M⁻¹ s⁻¹. For the same molecule, in assay [5], the t1/2 worked out at 0.2 min.

B6: H4H12858P (antibody, human IgG4 S228P, kappa, V domains shown)
VH: EVQLVESGGDLVQPGGSLRLSCTASGFIFRNYAMNWVRQAPGKGLEWLSGILGSNDNTYYVDSVKGRFTISRDNSRNTLYLQMNSLRAEDSAVYYCAKGDAGGFDYWGQGTLVTVSS
VL: DVVMTQSPLSLPVILGQPASISCRSSQSLVSSDGNTYLNWFQQRPGQSPRRLIYKVSNRDSGVPDRFSGSGSGTDFTLKISRVEAEDVGAYYCMQGSYWPPTFGQGTKLEIKR
notes: anti-IL2Rγ monoclonal antibody expressed with human IgG4 Fc; also called REGN9433
Take B6: in assay [1], the “100 nM Ag Bound (RU)” value was found to be 134 RU, the off-rate constant (koff) was determined as 0.00155 s⁻¹ and the t1/2 was found to be 7 min. Also, in assay [2], the “100 nM Ag Bound” value was found to be 67 RU, the Kd came to 1.23 nM, the koff was 0.000316 s⁻¹ and the kon was found to be 257000 M⁻¹ s⁻¹. Besides, the t1/2 in assay [2] was 37 min. In addition, in assay [3], the “100 nM Ag Bound” value amounted to 58 RU, the Kd was 2.36 nM, the koff was 0.000269 s⁻¹ and the on-rate constant (kon) came to 114000 M⁻¹ s⁻¹. In addition, the t1/2 in assay [3] came to 43 min. In addition, in assay [4], the “100 nM Ag Bound (RU)” value turned out to be 143 RU, the off-rate constant (koff) was 0.000542 s⁻¹ and the t1/2 was 21 min. Further, in assay [5], the “100 nM Ag Bound” value was determined as 57 RU, binding was characterised by a dissociation constant (Kd) of 4.52 nM, the koff is 0.00174 s⁻¹ and the kon was 386000 M⁻¹ s⁻¹. In assay [5], this molecule gave a t1/2 of 7 min.
